Like-named read-outs stand apart in the source and are kept apart here. Ends that are not written are not given here.
Key:
[1] = biological target: T1, Soluble recombinant human urokinase receptor (suPAR) (human, UniProt Q03405 23-299, biotinylated in the plate assays (sites not given)); test: uPAR receptor binding assay
[2] = biological target: T1, Soluble recombinant human urokinase …; test: uPAR receptor binding assay; remark: listed apart in the source

T1 sequence (Q03405 23-299): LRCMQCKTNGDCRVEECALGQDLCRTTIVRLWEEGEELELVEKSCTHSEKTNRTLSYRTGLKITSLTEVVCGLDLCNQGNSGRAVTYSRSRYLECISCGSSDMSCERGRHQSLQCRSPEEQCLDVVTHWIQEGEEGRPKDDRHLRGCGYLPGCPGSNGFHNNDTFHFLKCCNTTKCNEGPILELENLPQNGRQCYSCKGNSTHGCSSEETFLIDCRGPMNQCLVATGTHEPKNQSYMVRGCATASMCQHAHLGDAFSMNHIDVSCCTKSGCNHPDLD

| Binder | IC50 [1] [nM] | IC50 [2] [nM] |
| --- | --- | --- |
| CLNGGTAVSNKYFSNIHWCN [uPA13-32 peptide (amino acids 13-32 of human urokinase with Cys19 converted to Ala)] | 250 | 250 |
| AESTYHHLSLGYMYTLN-NH2 [Peptide 25 (synthetic peptide of clone 25)] | > 10000 | > 10000 |
| AEPMPHSLNFSQYLWYT-NH2 [Clone 20 peptide] | 10 | 10 |

Reference: US20040265797A1 (published 2004)
